The assay concerns the target HIV-1 JRFL Env (full length), on infected primary CD4+ T cells and on virions (HIV-1 JRFL, UniProt P20871 32-503; P20871 504-848). Description: cell-based or functional assay.

B1: X5 antibody (antibody, V domains shown)
VH: VQLLEQSGAEVKKPGSSVQVSCKASGGTFSMYGFNWVRQAPGHGLEWMGGIIPIFGTSNYAQKFRGRVTFTADQATSTAYMELTNLRSDDTAVYYCARDFGPDWEDGDSYDGSGRGFFDFWGQGTLVTVSS
VL: ELVLTQSPGTLSLSAGERATLSCRASQSVSSGSLAWYQQKPGQAPRLLIYGASTRATGIPDRFSGSGSGTDFTLTIGRLEPEDLAVYYCQQYGTSPYTFGQGTKLEIKR
In the case of B1, the “Neutralization IC50 against JRFL (X5 + sCD4 mix)” value worked out at 3.23 µg/mL and the “Neutralization IC50 against JRFL (X5 antibody alone)” value is over 10 µg/mL.

B2: N5-i5 antibody (antibody, V domains shown)
VH: EVQLVESGGGLVQPGGSLRLSCAASGFTFSTYAMSWVRQAPGKGLEWVSSINNSGRNTFSADSVKGRFTISRDNSKNTLFLVMNSLRAEDTAVYYCAKDLRLGGGSDYWGQGTLVTVSS
VL: QSALTQPASVSGSPGQSITISCTGTSSDVGSYNFVSWYQQHPGKAPKLMIYEVSERPSGISNRFSGSKSGNTASLTISGLQAEDEADYYCSSYAGSTTFRVFGGGTKLTVRG
With B2, the “Neutralization IC50 against JRFL (N5-i5 + sCD4 mix)” value is over 10 µg/mL and the “Neutralization IC50 against JRFL (N5-i5 antibody alone)” value is over 10 µg/mL.

B3: A32 antibody (antibody, V domains shown)
VH: QVQLQESGPGLVKPSQTLSLSCTVSGGSSSSGAHYWSWIRQYPGKGLEWIGYIHYSGNTYYNPSLKSRITISQHTSENQFSLKLNSVTVADTAVYYCARGTRLRTLRNAFDIWGQGTMVTVSS
VL: VLTQPPSASGSPGQSVTISCTGTSSDVGGYNYVSWYQHHPGKAPKLIISEVNNRPSGVPDRFSGSKSGNTASLTVSGLQAEDEAEYYCSSYTDIHNFVFGGGTKLTVLG
Take B3: the “Neutralization IC50 against JRFL (A32 + sCD4 mix)” value is over 10 µg/mL and the “Neutralization IC50 against JRFL (A32 antibody alone)” value was over 10 µg/mL.
